Results published in patent publication US20240116985A1 (published 2024).
Starred links: 1 amine or outer side, 2 acyl side, 3 side chain; linkers in the order of their positions; H or OH if unused. Positions of bridges follow the written chain, without caps; N, C: chain ends. Non-standard residues stand in square brackets, D forms with d. Primed or numbered codes have the meaning given here. No end group written: not given here. PyrS2″ = (S)-3-amino-1-((pent-4-en-1-yloxy)carbonyl)pyrrolidine-3-carboxylic acid (stapling residue), C=CCCCOC(=O)N1CC[C@@](N[*:1])(C(=O)[*:2])C1; B5(4) = 2,2-bis(4-pentenyl)glycine = 2-amino-2-(pent-4-en-1-yl)hept-6-enoic acid (stitching residue), C=CCCCC(CCCC=C)(N[*:1])C(=O)[*:2]; PyrS2 = (S)-3-amino-1-((pent-4-en-1-yloxy)carbonyl)pyrrolidine-3-carboxylic acid, C=CCCCOC(=O)N1CC[C@@](N[*:1])(C(=O)[*:2])C1; B5(3) = 2,2-bis(4-pentenyl)glycine (stitching residue), C=CCCCC(CCCC=C)(N[*:1])C(=O)[*:2]; B5 = 2-amino-2-(pent-4-en-1-yl)hept-6-enoic acid, C=CCCCC(CCCC=C)(N[*:1])C(=O)[*:2]; Phe(2-CF3) = N[C@@H](Cc1ccccc1C(F)(F)F)C(=O)O; Phe(2-CONH2) = NC(=O)c1ccccc1C[C@H](N)C(=O)O; Phe(2-Br) = N[C@@H](Cc1ccccc1Br)C(=O)O; Phe(2-Cl) = N[C@@H](Cc1ccccc1Cl)C(=O)O; Phe(2-OMe) = COc1ccccc1C[C@H](N)C(=O)O; 2Nal = N[C@@H](Cc1ccc2ccccc2c1)C(=O)O; Phe(2-F) = N[C@@H](Cc1ccccc1F)C(=O)O; Phe(2-Me) = Cc1ccccc1C[C@H](N)C(=O)O; Bta = N[C@@H](Cc1csc2ccccc12)C(=O)O; Lys(iPr) = CC(C)NCCCC[C@H](N)C(=O)O; αAllylPro = C=CC[C@@]1(C(=O)O)CCCN1; tBuAla = CC(C)(C)C[C@H](N)C(=O)O; 3Thi = N[C@@H](Cc1ccsc1)C(=O)O; Cha = N[C@@H](CC1CCCCC1)C(=O)O; Thr(ol) = C[C@@H](O)[C@H](N)CO

target: T1, B-cat-Halo (UniProt P35222 1-781); assay: cell-based or functional assay
T1 sequence (looked up): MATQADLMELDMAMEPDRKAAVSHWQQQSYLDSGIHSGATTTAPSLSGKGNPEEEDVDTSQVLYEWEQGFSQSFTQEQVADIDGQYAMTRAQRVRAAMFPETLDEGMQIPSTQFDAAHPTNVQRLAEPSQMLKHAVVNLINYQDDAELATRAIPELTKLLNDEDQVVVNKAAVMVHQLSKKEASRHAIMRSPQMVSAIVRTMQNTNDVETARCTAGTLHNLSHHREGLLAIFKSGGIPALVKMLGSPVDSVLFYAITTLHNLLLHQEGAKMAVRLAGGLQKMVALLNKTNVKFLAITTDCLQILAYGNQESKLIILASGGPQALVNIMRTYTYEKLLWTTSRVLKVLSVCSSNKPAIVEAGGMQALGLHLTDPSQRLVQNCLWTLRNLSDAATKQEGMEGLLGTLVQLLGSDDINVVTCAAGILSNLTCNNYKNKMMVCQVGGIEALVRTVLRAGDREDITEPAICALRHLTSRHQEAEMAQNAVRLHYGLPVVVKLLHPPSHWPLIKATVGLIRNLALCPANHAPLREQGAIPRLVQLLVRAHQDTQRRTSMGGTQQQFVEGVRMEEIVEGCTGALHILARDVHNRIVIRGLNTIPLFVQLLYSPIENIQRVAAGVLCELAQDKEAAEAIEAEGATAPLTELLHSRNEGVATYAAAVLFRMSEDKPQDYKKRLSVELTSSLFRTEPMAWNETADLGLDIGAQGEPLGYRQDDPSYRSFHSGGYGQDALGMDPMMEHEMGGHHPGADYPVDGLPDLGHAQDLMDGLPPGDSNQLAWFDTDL

| Binder | NanoBRET Abs IC50 [µM] |
| --- | --- |
| Ac-[αAllylPro]D[tBuAla][B5(3)]DDAAFN[PyrS2][3Thi][2Nal]H-NH2 (staple 1-4, 4-11) [I-790] | > 20 |

target: T2, B-cat-Halo (UniProt P35222 1-781); assay: cell-based or functional assay
T2 sequence (looked up): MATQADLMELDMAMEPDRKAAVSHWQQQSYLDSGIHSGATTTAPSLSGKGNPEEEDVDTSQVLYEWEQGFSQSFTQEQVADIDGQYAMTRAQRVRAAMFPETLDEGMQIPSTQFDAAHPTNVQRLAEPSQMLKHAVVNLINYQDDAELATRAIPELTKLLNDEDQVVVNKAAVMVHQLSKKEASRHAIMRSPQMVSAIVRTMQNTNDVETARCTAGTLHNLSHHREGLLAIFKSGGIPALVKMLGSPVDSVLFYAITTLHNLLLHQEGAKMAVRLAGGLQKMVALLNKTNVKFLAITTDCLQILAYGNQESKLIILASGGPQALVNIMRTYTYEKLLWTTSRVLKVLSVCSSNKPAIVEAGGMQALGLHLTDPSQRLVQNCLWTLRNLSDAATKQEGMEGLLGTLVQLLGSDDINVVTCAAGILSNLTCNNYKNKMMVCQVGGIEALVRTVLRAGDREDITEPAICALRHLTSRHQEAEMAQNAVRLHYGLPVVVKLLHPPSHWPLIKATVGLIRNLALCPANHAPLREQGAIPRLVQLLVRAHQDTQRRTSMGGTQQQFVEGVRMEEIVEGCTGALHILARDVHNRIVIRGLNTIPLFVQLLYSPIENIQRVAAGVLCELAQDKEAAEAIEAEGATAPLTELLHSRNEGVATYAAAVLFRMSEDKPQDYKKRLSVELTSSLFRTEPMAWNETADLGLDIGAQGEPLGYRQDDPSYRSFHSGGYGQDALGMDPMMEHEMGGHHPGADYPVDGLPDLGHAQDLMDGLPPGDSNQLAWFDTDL

| Binder | NanoBRET Abs IC50 [µM] |
| --- | --- |
| Ac-[αAllylPro]D[tBuAla][B5(4)]DDAAFN[PyrS2″][Phe(2-CONH2)][Bta]Q-NH2 (staple 1-4, 4-11) [I-1314] | > 20 |
| Ac-[αAllylPro]D[tBuAla][B5(4)]DDAAFL[PyrS2″][2cbmF][Bta]Q-NH2 (staple 1-4, 4-11) [I-1315] | 7.2 |
| Ac-[αAllylPro]D[tBuAla][B5(4)]DDAAFF[PyrS2″][2cbmF][Bta]Q-NH2 (staple 1-4, 4-11) [I-1316] | 6.8 |
| Ac-[αAllylPro]D[tBuAla][B5(4)]DDAAFN[PyrS2″][Phe(2-CF3)][Bta]Q-NH2 (staple 1-4, 4-11) [I-1317] | 9.7 |
| Ac-[αAllylPro]D[Cha][B5(4)]DDAAFT[PyrS2″][Phe(2-Cl)][Bta][Thr(ol)] (staple 1-4, 4-11) [I-1312] | 16.1 |
| Ac-[αAllylPro]D[tBuAla][B5(4)]DD[Lys(iPr)]AFL[PyrS2″][Phe(2-Cl)][Bta][Thr(ol)] (staple 1-4, 4-11) [I-1313] | 51.4 |

The remaining lines, values ahead:

| NanoBRET Abs IC50 [µM] | Binder |
| --- | --- |
| 7 | [αAllylPro]D[tBuAla][B5(4)]DDAAFL[PyrS2″][Phe(2-OMe)][Bta]Q-NH2 (staple 1-4, 4-11) [I-1327] |
| 10.9 | Ac-[αAllylPro]D[tBuAla][B5(4)]DDAAFL[PyrS2″][Phe(2-F)][Bta]Q-NH2 (staple 1-4, 4-11) [I-1321] |
| 11.7 | Ac-[αAllylPro]D[tBuAla][B5(4)]DDAAFN[PyrS2″][Phe(2-Br)][Bta]Q-NH2 (staple 1-4, 4-11) [I-1323] |
| 35 | [αAllylPro]D[tBuAla][B5]DDAAFN[PyrS2][Cha][Bta]Q-NH2 (staple 1-4, 4-11) [I-1329] |
| 5.7 | [αAllylPro]D[tBuAla][B5(4)]DDAAFF[PyrS2″][Phe(2-Br)][Bta]Q-NH2 (staple 1-4, 4-11) [I-1325] |
| 9.1 | Ac-[αAllylPro]D[tBuAla][B5(4)]DDAAFF[PyrS2″][Phe(2-F)][Bta]Q-NH2 (staple 1-4, 4-11) [I-1322] |
| 5.8 | [αAllylPro]D[tBuAla][B5(4)]DDAAFL[PyrS2″][Phe(2-Br)][Bta]Q-NH2 (staple 1-4, 4-11) [I-1324] |
| 5.4 | [αAllylPro]D[tBuAla][B5(4)]DDAAFF[PyrS2″][Phe(2-OMe)][Bta]Q-NH2 (staple 1-4, 4-11) [I-1328] |
| 26.2 | Ac-[αAllylPro]D[tBuAla][B5(4)]DDAAFN[PyrS2″][Phe(2-F)][Bta]Q-NH2 (staple 1-4, 4-11) [I-1320] |
| 6.2 | [αAllylPro]D[tBuAla][B5(4)]DDAAFF[PyrS2″][Phe(2-Me)][Bta]Q-NH2 (staple 1-4, 4-11) [I-1326] |
